Test results taken from paper PMC2670979 (2009).

B1: GST-Miro1 WT [not stated] / TRAK2 (amino acids 476–700) [modified: 35S-methionine label; 35S-methionine label] [not stated] (parent complex)
chain 1: MKKDVRILLVGEPRVGKTSLIMSLVSEEFPEEVPPRAEEITIPADVTPERVPTHIVDYSEAEQSDEQLHQEISQANVICIVYAVNNKHSIDKVTSRWIPLINERTDKDSRLPLILVGNKSDLVEYSSMETILPIMNQYTEIETCVECSAKNLKNISELFYYAQKAVLHPTGPLYCPEEKEMKPACIKALTRIFKISDQDNDGTLNDAELNFFQRICFNTPLAPQALEDVKNVVRKHISDGVADSGLTLKGFLFLHTLFIQRGRHETTWTVLRRFGYDDDLDLTPEYLFPLLKIPPDCTTELNHHAYLFLQSTFDKHDLDRDCALSPDELKDLFKVFPYIPWGPDVNNTVCTNERGWITYQGFLSQWTLTTYLDVQRCLEYLGYLGYSILTEQESQASAVTVTRDKKIDLQKKQTQRNVFRCNVIGVKNCGKSGVLQALLGRNLMRQKKIREDHKSYYAINTVYVYGQEKYLLLHDISESEFLTEAEIICDVVCLVYDVSNPKSFEYCARIFKQHFMDSRIPCLIVAAKSDLHEVKQEYSISPTDFCRKHKMPPPQAFTCNTADAPSKDIFVKLTTMAMYPHVTQADLKSSTFWLRASFGATVFAVLGFAMYKALLKQR
chain 2: EDSDLATALHRLSLRRQNYLSEKQFFAEEWERKLQILAEQEEEVSSCEALTENLASFCTDQSETTELGSAGCLRGFMPEKLQIVKPLEGSQTLHHWQQLAQPNLGTILDPRPGVITKGFTQMPKDAVYHISDLEEDEEVGITFQVQQPLQLEQKPAPPPPVTGIFLPPMTSAGGPVSVATSNPGKCLSFTNSTFTFTTCRILHPSDITQVTPSSGFPSLSCGSSA

Variants of: B1
Test: GST pull-down of in vitro translated 35S-labeled protein; 2 mM Ca2+; normalized to 100 at 0 mM Ca2+; parent: 110; read off a plot

Variant	screen value
chain 1 E208K, chain 1 E328K	~120
